In patent US20150166628A1:

Target: cellular IGF-1 receptors (UniProt P24062)
Test: cell-based or functional assay

UniProt P24062, sequence (P24062 31-1370): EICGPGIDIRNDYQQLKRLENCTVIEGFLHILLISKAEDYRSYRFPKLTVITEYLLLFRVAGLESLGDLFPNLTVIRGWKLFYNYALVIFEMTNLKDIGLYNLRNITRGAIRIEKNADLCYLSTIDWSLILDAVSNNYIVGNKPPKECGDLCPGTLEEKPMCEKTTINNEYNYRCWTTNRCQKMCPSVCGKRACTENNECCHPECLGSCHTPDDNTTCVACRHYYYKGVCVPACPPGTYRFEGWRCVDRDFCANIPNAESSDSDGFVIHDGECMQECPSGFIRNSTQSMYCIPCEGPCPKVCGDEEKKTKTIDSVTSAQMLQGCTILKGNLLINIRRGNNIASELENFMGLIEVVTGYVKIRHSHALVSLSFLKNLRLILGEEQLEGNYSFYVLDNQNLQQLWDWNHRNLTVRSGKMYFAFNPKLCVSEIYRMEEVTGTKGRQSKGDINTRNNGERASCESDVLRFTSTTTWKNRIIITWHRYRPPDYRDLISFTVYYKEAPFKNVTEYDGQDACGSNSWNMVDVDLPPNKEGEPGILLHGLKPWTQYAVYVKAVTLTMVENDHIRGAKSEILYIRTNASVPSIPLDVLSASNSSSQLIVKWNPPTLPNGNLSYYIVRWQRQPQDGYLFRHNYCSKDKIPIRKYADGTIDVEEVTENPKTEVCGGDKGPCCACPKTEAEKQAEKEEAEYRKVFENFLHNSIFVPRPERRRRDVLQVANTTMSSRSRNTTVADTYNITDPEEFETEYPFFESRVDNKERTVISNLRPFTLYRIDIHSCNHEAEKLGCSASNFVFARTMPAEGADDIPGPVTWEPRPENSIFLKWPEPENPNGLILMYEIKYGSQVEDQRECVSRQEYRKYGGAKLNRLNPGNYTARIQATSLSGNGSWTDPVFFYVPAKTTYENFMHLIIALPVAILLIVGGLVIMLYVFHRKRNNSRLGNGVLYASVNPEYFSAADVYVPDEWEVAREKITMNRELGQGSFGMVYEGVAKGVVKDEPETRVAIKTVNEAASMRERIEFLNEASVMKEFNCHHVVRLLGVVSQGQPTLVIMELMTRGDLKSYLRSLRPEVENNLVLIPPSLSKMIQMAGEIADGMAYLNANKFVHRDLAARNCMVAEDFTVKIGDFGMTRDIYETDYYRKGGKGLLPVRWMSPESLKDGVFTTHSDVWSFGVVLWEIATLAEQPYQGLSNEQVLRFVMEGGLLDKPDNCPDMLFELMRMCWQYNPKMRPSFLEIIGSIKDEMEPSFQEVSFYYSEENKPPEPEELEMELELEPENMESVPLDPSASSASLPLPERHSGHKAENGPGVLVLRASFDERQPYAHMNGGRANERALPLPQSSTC

- sulfate incorporation into meniscal cartilage, normalized to saline injection, four days after injection (fold of saline): 1.82
- sulfate incorporation into meniscal cartilage, normalized to saline injection, two days after injection (fold of saline): 2.1
Substance: HB-IGF-1 fusion protein (heparin-binding domain of human HB-EGF with a single cysteine-to-serine mutation fused to the amino-terminus of a mature IGF-1 protein) (from UniProt P05019 49-118)
